Data published in US20020111309A1.

Tests used:
[1] = molecular target: Aβ (1-40), beta-amyloid protein of Alzheimer's disease (UniProt P05067); test: cell-based or functional assay
[2] = molecular target: Aβ (1-40), beta-amyloid protein of Alzheimer's disease (UniProt P05067); test: solid phase binding immunoassay, Aβ (1-40) on microtiter wells, laminin in solution, anti-laminin detection, one-site fit

Aβ (1-40), beta-amyloid protein of Alzheimer's disease, sequence (P05067 672-711 limits assumed): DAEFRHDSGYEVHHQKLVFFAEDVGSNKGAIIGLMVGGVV

For “Engelbreth-Holm-Swarm (EHS) mouse tumor laminin, P02468 34-1607”, the Thioflavin T fluorescence (Aβ (1-40) amyloid fibril formation), 25 µM Aβ with 100 nM laminin, 1 week [1] was 27.1 fold lower, the Thioflavin T fluorescence (Aβ (1-40) amyloid fibril formation), 25 µM Aβ with 100 nM laminin, 1 hour [1] was 2.9 fold lower and the Thioflavin T fluorescence (Aβ (1-40) amyloid fibril formation), 25 µM Aβ with 100 nM laminin, 1 day [1] was 4.6 fold lower. The Thioflavin T fluorescence (Aβ (1-40) amyloid fibril formation), 25 µM Aβ with 100 nM laminin, 3 days [1] was 30.6 fold lower, the Thioflavin T fluorescence (Aβ fibrillogenesis), second study, 25 µM Aβ with 100 nM laminin, 1 week (fold decrease) [1] was 21 and the Thioflavin T fluorescence (Aβ fibrillogenesis), second study, 25 µM Aβ with 100 nM laminin, 1 day (fold decrease) [1] was 9. It also gave a Thioflavin T fluorescence (Aβ fibrillogenesis), second study, 25 µM Aβ with 100 nM laminin, 3 days (fold decrease) [1] of 9, a dissolution of pre-formed Aβ amyloid fibrils (Thioflavin T fluorometry, 4 days), 16 nM laminin [1] of 25% and a dissolution of pre-formed Aβ amyloid fibrils (Thioflavin T fluorometry, 4 days), 31 nM laminin [1] of 28%. The dissolution of pre-formed Aβ amyloid fibrils (Thioflavin T fluorometry, 4 days), 63 nM laminin [1] was 39%, the dissolution of pre-formed Aβ amyloid fibrils (Thioflavin T fluorometry, 4 days), 125 nM laminin [1] was 41% and the Kd [2] was 2.7 nM.
